Laboratory results published in publication PMC2475632.

T1: Dpo4 (DNA polymerase IV) (Sulfolobus solfataricus, UniProt Q97W02 1-352)
T1 sequence: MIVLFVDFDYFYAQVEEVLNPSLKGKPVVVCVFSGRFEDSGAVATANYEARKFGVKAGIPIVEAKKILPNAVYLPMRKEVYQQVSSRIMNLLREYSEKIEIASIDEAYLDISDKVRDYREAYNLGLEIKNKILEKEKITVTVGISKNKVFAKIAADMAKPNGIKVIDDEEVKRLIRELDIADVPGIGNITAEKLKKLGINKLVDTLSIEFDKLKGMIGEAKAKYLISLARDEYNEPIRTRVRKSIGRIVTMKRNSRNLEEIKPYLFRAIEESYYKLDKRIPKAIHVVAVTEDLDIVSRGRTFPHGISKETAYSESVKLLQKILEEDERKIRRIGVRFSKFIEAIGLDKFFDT


Biological target: T1, Dpo4 (DNA polymerase IV)
Assay: EMSA

Binder	Kd [nM]
21-mer/44DDP (dsDNA, cisplatin-d(GpG) intrastrand cross-link at template G20-G21 (5' to 3' numbering; GG inferred from primer 23/24 sites)) DNA 1: GTCCCTGTTCGGGCGCCAGGA DNA 2: GATCACGAGACTAGCCTCTGGTCTCCTGGCGCCCGAACAGGGAC	8 ± 1
27-mer/44DDP (dsDNA, cisplatin-d(GpG) intrastrand cross-link at template G20-G21) DNA 1: GTCCCTGTTCGGGCGCCAGGAGACCAG DNA 2: GATCACGAGACTAGCCTCTGGTCTCCTGGCGCCCGAACAGGGAC	17 ± 3
23-mer/44CTL (dsDNA) DNA 1: GTCCCTGTTCGGGCGCCAGGAGA DNA 2: GATCACGAGACTAGCCTCTGGTCTCCTGGCGCCCGAACAGGGAC	17 ± 2
24-mer/44CTL (dsDNA) DNA 1: GTCCCTGTTCGGGCGCCAGGAGAC DNA 2: GATCACGAGACTAGCCTCTGGTCTCCTGGCGCCCGAACAGGGAC	8 ± 1
24-mer/44DDP (dsDNA, cisplatin-d(GpG) intrastrand cross-link at template G20-G21) DNA 1: GTCCCTGTTCGGGCGCCAGGAGAC DNA 2: GATCACGAGACTAGCCTCTGGTCTCCTGGCGCCCGAACAGGGAC	26 ± 3
21-mer/44CTL (dsDNA) DNA 1: GTCCCTGTTCGGGCGCCAGGA DNA 2: GATCACGAGACTAGCCTCTGGTCTCCTGGCGCCCGAACAGGGAC	18 ± 3
22-mer/44CTL (dsDNA) DNA 1: GTCCCTGTTCGGGCGCCAGGAG DNA 2: GATCACGAGACTAGCCTCTGGTCTCCTGGCGCCCGAACAGGGAC	16 ± 3
22-mer/44DDP (dsDNA, cisplatin-d(GpG) intrastrand cross-link at template G20-G21) DNA 1: GTCCCTGTTCGGGCGCCAGGAG DNA 2: GATCACGAGACTAGCCTCTGGTCTCCTGGCGCCCGAACAGGGAC	21 ± 4
25-mer/44DDP (dsDNA, cisplatin-d(GpG) intrastrand cross-link at template G20-G21) DNA 1: GTCCCTGTTCGGGCGCCAGGAGACC DNA 2: GATCACGAGACTAGCCTCTGGTCTCCTGGCGCCCGAACAGGGAC	17 ± 4
26-mer/44CTL (dsDNA) DNA 1: GTCCCTGTTCGGGCGCCAGGAGACCA DNA 2: GATCACGAGACTAGCCTCTGGTCTCCTGGCGCCCGAACAGGGAC	11 ± 2
23-mer/44DDP (dsDNA, cisplatin-d(GpG) intrastrand cross-link at template G20-G21) DNA 1: GTCCCTGTTCGGGCGCCAGGAGA DNA 2: GATCACGAGACTAGCCTCTGGTCTCCTGGCGCCCGAACAGGGAC	56 ± 9
27-mer/44CTL (dsDNA) DNA 1: GTCCCTGTTCGGGCGCCAGGAGACCAG DNA 2: GATCACGAGACTAGCCTCTGGTCTCCTGGCGCCCGAACAGGGAC	13 ± 4
25-mer/44CTL (dsDNA) DNA 1: GTCCCTGTTCGGGCGCCAGGAGACC DNA 2: GATCACGAGACTAGCCTCTGGTCTCCTGGCGCCCGAACAGGGAC	5 ± 1
26-mer/44DDP (dsDNA, cisplatin-d(GpG) intrastrand cross-link at template G20-G21) DNA 1: GTCCCTGTTCGGGCGCCAGGAGACCA DNA 2: GATCACGAGACTAGCCTCTGGTCTCCTGGCGCCCGAACAGGGAC	12 ± 2
